Source: patent US20160200782A1 (MOERAE MATRIX, published 2016)

Assays:
Test in all cases: cell-based or functional assay
Ros(h) = Ros(h) (human, UniProt P08922 1883-2347, limits assumed)
GRK7(h) = molecular target: T1, GRK7(h) (human, UniProt Q8WTQ7 1-553, limits assumed)
T1 sequence (looked up): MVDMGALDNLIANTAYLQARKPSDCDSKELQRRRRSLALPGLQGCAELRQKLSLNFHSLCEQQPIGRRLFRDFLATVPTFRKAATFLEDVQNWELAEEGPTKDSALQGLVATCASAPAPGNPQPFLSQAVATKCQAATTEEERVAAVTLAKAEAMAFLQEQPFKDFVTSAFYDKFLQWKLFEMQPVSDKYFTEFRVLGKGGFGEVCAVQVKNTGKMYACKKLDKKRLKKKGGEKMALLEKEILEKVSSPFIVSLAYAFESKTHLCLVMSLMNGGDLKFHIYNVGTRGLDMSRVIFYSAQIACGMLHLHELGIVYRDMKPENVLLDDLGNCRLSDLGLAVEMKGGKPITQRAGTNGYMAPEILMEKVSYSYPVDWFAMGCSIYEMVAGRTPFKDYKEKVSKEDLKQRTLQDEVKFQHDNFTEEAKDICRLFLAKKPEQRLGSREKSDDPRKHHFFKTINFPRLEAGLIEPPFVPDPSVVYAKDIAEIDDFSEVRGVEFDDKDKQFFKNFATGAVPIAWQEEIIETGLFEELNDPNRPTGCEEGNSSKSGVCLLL

TBK1(h) = molecular target: T2, TBK1(h) (human, UniProt Q9UHD2 1-729, limits assumed)
T2 sequence (looked up): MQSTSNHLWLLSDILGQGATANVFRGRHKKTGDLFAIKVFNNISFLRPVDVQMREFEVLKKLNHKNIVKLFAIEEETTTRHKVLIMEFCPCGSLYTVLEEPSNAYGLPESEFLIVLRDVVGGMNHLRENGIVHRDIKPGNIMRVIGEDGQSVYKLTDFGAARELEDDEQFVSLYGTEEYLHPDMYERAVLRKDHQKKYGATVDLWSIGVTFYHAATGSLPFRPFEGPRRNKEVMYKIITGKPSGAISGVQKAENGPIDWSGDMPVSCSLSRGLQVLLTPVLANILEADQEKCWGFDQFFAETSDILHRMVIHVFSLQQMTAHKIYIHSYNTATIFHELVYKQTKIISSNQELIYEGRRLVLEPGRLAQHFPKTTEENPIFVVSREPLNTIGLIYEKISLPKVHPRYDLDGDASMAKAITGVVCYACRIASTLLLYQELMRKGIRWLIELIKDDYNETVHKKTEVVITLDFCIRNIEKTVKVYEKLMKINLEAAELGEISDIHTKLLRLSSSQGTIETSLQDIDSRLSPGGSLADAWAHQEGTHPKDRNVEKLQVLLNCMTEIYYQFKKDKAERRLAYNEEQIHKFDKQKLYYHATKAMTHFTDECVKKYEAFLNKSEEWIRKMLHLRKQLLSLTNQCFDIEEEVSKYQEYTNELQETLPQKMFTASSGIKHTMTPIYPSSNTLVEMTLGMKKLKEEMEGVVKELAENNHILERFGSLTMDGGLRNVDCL

PKCµ(h) = molecular target: T3, PKCµ(h) (human, UniProt Q15139 1-912, limits assumed)
T3 sequence (looked up): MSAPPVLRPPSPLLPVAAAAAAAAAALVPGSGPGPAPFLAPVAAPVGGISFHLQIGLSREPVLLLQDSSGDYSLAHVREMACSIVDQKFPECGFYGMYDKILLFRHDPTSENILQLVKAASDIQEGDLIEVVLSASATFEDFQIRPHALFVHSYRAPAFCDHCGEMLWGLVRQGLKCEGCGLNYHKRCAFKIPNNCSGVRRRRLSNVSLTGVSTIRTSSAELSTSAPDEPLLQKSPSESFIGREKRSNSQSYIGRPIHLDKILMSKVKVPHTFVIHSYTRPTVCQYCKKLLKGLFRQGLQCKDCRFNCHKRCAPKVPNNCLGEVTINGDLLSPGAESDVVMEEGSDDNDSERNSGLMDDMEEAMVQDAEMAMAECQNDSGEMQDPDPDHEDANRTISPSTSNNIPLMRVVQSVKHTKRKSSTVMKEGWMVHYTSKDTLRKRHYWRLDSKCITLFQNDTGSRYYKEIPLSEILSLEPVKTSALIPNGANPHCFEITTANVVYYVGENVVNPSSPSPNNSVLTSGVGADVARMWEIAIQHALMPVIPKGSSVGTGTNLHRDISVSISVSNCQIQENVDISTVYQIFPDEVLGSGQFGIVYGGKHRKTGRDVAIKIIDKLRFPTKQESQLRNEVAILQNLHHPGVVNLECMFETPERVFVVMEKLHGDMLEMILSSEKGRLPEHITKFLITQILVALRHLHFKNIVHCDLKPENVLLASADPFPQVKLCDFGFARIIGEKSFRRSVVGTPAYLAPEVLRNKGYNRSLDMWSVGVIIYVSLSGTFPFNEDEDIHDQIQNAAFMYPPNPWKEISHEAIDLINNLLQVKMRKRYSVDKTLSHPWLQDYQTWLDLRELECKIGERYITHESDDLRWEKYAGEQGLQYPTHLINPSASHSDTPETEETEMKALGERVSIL

MSK2(h) = MSK2(h) (human, UniProt O75676 1-772, limits assumed)
PhKγ2(h) = molecular target: T4, PhKγ2(h) (human, UniProt P15735 1-406, limits assumed)
T4 sequence (looked up): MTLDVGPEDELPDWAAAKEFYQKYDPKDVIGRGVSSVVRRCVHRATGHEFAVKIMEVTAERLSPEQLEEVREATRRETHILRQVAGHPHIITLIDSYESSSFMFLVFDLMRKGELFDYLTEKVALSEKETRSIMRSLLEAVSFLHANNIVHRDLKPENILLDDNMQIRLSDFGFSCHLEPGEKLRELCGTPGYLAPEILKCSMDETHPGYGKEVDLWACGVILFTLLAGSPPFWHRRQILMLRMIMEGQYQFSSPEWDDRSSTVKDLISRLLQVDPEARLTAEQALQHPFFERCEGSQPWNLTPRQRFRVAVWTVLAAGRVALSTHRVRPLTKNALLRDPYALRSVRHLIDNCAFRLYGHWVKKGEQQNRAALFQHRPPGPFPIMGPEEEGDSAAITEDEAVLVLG

PDGFRα(h) = PDGFRα(h) (human, UniProt P16234 550-1089, limits assumed)
MSSK1(h) = MSSK1(h) (human, UniProt Q9UPE1 1-567, limits assumed)
KDR(h) = KDR(h) (human, UniProt P35968 790-1356, limits assumed)
KDR(h), sequence (P35968 790-1356 limits assumed): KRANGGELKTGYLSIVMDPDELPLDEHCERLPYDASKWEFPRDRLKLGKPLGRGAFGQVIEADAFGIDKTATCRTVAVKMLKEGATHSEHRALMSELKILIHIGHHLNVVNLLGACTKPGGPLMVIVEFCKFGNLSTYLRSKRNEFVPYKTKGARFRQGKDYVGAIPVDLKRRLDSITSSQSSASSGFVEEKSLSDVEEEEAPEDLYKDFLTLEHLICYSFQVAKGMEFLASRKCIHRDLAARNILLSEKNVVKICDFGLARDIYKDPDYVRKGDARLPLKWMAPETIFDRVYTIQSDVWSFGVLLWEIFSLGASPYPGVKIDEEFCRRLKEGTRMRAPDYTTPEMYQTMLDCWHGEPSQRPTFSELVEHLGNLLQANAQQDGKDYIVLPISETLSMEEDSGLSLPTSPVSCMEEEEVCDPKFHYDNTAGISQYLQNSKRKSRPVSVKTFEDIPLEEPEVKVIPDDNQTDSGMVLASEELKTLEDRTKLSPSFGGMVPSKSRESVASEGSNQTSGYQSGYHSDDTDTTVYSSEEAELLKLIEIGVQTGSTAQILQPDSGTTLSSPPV

PDGFRα(h), sequence (P16234 550-1089 limits assumed): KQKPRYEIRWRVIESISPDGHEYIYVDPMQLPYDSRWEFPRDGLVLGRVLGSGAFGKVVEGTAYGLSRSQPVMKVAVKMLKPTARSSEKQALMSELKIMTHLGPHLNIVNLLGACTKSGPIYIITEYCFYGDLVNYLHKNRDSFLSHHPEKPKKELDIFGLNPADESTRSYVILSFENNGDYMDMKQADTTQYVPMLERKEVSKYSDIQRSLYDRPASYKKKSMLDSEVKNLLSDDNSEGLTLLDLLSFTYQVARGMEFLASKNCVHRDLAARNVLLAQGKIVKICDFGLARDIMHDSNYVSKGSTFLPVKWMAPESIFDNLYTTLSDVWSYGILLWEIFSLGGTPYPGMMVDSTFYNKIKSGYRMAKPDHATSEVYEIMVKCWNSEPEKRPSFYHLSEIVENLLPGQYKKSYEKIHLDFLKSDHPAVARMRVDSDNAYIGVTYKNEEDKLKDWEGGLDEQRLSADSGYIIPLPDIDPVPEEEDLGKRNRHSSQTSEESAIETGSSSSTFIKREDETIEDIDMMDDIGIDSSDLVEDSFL
MSSK1(h), sequence (Q9UPE1 whole entry): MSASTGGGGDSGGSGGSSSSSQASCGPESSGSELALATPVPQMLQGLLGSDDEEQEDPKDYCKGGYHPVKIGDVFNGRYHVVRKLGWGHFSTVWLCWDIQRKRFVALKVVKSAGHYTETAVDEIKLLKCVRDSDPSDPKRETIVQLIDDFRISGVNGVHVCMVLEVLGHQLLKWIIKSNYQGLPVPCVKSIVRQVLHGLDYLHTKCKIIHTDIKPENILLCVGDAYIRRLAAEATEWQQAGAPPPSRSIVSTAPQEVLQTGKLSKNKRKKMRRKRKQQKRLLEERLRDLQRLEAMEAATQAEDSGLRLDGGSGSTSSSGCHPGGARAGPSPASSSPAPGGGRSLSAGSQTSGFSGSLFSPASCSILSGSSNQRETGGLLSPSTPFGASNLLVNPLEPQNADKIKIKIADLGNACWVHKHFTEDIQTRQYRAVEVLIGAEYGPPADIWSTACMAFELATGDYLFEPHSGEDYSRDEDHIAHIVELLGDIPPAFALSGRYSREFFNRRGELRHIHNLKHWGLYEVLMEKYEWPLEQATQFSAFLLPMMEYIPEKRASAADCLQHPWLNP
MSK2(h), sequence (O75676 whole entry): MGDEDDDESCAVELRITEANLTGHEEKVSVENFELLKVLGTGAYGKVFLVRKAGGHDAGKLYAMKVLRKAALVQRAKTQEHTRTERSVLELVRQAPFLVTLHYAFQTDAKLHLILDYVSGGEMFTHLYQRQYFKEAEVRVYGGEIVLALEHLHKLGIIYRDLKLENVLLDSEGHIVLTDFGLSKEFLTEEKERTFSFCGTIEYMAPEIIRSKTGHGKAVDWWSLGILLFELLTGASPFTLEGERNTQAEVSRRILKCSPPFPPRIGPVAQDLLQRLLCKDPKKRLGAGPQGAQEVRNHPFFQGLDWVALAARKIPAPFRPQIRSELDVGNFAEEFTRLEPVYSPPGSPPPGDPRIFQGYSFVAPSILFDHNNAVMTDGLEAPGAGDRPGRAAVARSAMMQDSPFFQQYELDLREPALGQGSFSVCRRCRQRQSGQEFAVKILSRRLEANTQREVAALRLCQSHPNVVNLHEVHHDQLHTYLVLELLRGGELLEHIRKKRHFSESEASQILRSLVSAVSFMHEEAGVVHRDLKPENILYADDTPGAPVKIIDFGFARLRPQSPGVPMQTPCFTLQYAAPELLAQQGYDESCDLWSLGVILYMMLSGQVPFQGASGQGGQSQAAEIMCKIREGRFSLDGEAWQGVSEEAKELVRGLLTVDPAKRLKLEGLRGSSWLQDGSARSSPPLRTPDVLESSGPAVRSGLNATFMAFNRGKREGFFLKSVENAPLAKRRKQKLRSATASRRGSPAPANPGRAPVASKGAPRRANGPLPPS
Ros(h), sequence (P08922 1883-2347 limits assumed): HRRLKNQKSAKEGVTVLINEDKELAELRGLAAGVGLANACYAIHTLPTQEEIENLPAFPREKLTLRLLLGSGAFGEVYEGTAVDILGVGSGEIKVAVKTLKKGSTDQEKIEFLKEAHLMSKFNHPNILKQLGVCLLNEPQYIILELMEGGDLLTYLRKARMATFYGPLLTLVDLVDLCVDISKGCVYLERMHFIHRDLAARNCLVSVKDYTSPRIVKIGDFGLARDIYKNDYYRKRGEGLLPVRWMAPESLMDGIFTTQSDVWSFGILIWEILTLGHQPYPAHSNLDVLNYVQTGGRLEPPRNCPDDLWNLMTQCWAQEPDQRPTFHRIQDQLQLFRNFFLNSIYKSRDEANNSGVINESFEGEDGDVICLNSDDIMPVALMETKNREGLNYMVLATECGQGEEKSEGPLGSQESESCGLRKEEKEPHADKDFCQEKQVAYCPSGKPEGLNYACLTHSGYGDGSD

Binder: KAFAKLAARLYRKALARQLGVAA [MMI-0400]
- % activity (Ros(h)): 99%
- % activity (GRK7(h)): 100%
- % activity (TBK1(h)): 39%
- % activity (PKCµ(h)): 14%
- % activity (MSK2(h)): 52%
- % activity (PhKγ2(h)): 38%
- % activity (PDGFRα(h)): 40%
- % activity (MSSK1(h)): 75%
- % activity (KDR(h)): 94%

Binder: FAKLAARLYRKALARQLGVAA [MMI-0300]
- % activity (Ros(h)): 95%
- % activity (GRK7(h)): 122%
- % activity (TBK1(h)): 37%
- % activity (PKCµ(h)): 22%
- % activity (MSK2(h)): 56%
- % activity (PhKγ2(h)): 46%
- % activity (PDGFRα(h)): 65%
- % activity (MSSK1(h)): 77%
- % activity (KDR(h)): 101%
